± gives the uncertainty stated by the source.

This data set can be described thus: amyloid nucleation score (Sup35N fusion, yeast selection) (log enrichment); library NNK3; higher = more nucleation; inactive = no reads after selection. In outline:
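Output and input plasmid inserts were sequenced by Illumina after psi-negative yeast carrying Sup35N fused to peptides of 20 random codons had been induced 24 hours with 100 μM copper sulfate and grown 7 days at 30°C on medium lacking adenine and uracil. The nucleation score is the DiMSum log enrichment of output over input reads, centred on the mode score of non-aggregating sequences. Sequences with under 100 input reads were excluded.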
Take FVLVWFLRLFDL: the amyloid nucleation score entry was “inactive”.
With SLMLGYETFFMPCGQDMAKW the entry was “inactive”; with FPSIYLMSD, “inactive”; with SFIVETVDQDVLG, “inactive”.
With FIPGAMVRYQGRILLRSDAG, the amyloid nucleation score result is “inactive”.
The result for STLILNRLYCFNLISLASLS reads 0.56 ± 0.2.
With LWYYCTQEVIARRDEKA the entry was “inactive”; with HAAYGKCLQWFTRLVCYPVA, “inactive”; with GPRMCMQLRS, “inactive”.
For LLMGFWIWFINGVCNVRTDS, the amyloid nucleation score result was “inactive”.
Take FPDLVVYSS: the amyloid nucleation score entry is “inactive”.
Turning to WDCVNSAHWVLDMFSNSYVS, the amyloid nucleation score entry was “inactive”.
The result for KAPRMVLLRSGIVMLAHSEN reads “inactive”; that for YILNITNLWSLCLCRLCRKD, 3.08 ± 0.078; that for SVLRYYSNESRLTVHLSVCI, “inactive”.
As to SISSEALVFYFRIAGTVIKR, the amyloid nucleation score result is “inactive”.
As to AVTSVSWLIIIDGALRSVKG, the amyloid nucleation score result is “inactive”.
The result for NREQLSSNKRNFASHRWTSV reads “inactive”.
SNVVYMKYRMAVLVTLGICG: the amyloid nucleation score result is “inactive”.
LINKLENLIYSG: the amyloid nucleation score entry is “inactive”.
With LYVFCLAILPLDVLRFSLML the entry was “inactive”; with GYAISRFVFDTFRIFAVL, “inactive”; with LWIIKGYKSYSNHQWNWGM, “inactive”.
Regarding TYMCQVFNILDSQKYCYMRR, the amyloid nucleation score entry was “inactive”.
KYRPLKSCAHVMRDSIKSGC: the amyloid nucleation score entry was “inactive”.
As for RPFLSMS, the amyloid nucleation score result is “inactive”.
With KWNNCDF the entry was “inactive”.
For the substance PAPHRIKRIL, the amyloid nucleation score entry is “inactive”.
With SSEVYQALPPMS the entry was “inactive”; with ELISGLLRVGLDLKKAVSFD, “inactive”.
Consider FNWTKS, for which the amyloid nucleation score entry was “inactive”.
As to VKWTQE, the amyloid nucleation score result was “inactive”.
The substance VSLLMRASGSCLNMQVYSGF showed an amyloid nucleation score of 1.57 ± 0.11.
The result for YYLRKVKRKENTSMLHAAFS reads “inactive”; that for SVSLAHFGSRKLVFSG, “inactive”.
As for YFFFLRICWMDSSLVFGLLS, the amyloid nucleation score result is “inactive”.
Regarding VTLSGCIDLVWVCGVT, the amyloid nucleation score turned out to be 2.01 ± 0.099.
The result for FKAVQN reads “inactive”; that for VRFKRVYCSG, “inactive”.
The result for IVPAWLFGV reads “inactive”; that for TESPNYLYRI, “inactive”.
For the substance MDVVLRINLKQGRYPGTNAH, the amyloid nucleation score was 2.1 ± 0.091.
The result for NDKVGRAL reads “inactive”; that for TMNLCS, “inactive”; that for TLTYTKYYHFNCNRTLYESV, 0.665 ± 0.16.
Consider LIISFKYCFPWKVVSTSVYN, for which the amyloid nucleation score is 1.17 ± 0.17.
Take MSLGFALVSILVCF: the amyloid nucleation score entry was “inactive”.
The result for CLCKLEWHNTYMGYKR reads 2.63 ± 0.08.
Turning to CGVEHYWRGLVG, the amyloid nucleation score result is “inactive”.
With HPVLRIRLLREKMMRFS the entry was “inactive”; with KMTFSWSLHHYCKP, 1.08 ± 0.19.
With CGSWYSCCKNINEVARSYTG the entry was “inactive”; with YTSLCASVNGGLTIS, -0.464 ± 0.8; with NMNSWAMQWTICTHSTFVLS, “inactive”.
Regarding KCMAI, the amyloid nucleation score result was “inactive”.
The result for AYSRIHSWRMVCKRSNNGVG reads 1.41 ± 0.1; that for VTMFFLFHMQLYFSSKILGF, “inactive”.
On to TRMDIESGYVLESYSRPSPM, for which the amyloid nucleation score result was “inactive”.
Regarding MRSWRMRGSERFAHSLRGYL, the amyloid nucleation score entry was “inactive”.
For YISSPSIWLCISCEHRGTSA, the amyloid nucleation score is 2.92 ± 0.07.
On to FLDEFLWSCGIGFLRFIKDV, for which the amyloid nucleation score entry was “inactive”.
For GRCFKFCNLDT, the amyloid nucleation score result was “inactive”.
With CKMRVILKFIKNL the figure was 0.48 ± 0.16.
For VWFLLPRGLRCV, the amyloid nucleation score entry is “inactive”.
The result for QYSHPQRIIFSF reads -0.249 ± 0.43.
The result for IFNNYIIYTSYKEV reads 3.49 ± 0.077; that for FNWMPMGEKSAWAVRVRSAC, “inactive”; that for NVLYLQLRPMNLCEANSEIG, “inactive”.
With ATMKWFCIKHSFFPIGTCYA, the amyloid nucleation score entry was “inactive”.
RMYWAV: the amyloid nucleation score was found to be 1.02 ± 0.19.
In the case of DLLDHGFEASSKDLEFRDHS, the amyloid nucleation score entry is “inactive”.
With SARYWESDRLALIRCHLELR the entry was “inactive”.
With NENPDNYLRIAVWTTFFSFC the figure was 1.57 ± 0.095; with RWCVM, 0.14 ± 0.56; with ILTKRTAAFDPLGLKNWERC, -0.398 ± 1.7.
The result for FPPCTLSKLGSGYHLSNESS reads “inactive”; that for TFLALHNNQQLV, “inactive”; that for VSYEWPSQMFRPRVPLALAT, “inactive”.
For the substance THESATSYLISGFGIGFIWC, the amyloid nucleation score was 1.49 ± 0.089.
In the case of TFRYCTVLMFAVSFWQFHRC, the amyloid nucleation score entry was “inactive”.
In the case of SVGVFVYLKLINLIVLGGRG, the amyloid nucleation score entry is “inactive”.
As for CLKGNFIVNSNVFKCVLWYS, the amyloid nucleation score result is “inactive”.
As for NGELLCKGH, the amyloid nucleation score entry was “inactive”.
With HSGETIYKVWMMGSRTEIAW the entry was “inactive”; with LFRLKNRFEDKVGNSIRLWE, “inactive”.
Take MRMFCDIYLIVIDTEFMLHF: the amyloid nucleation score entry was “inactive”.
For RLSGNADYNNWTF, the amyloid nucleation score turned out to be 0.436 ± 0.67.
With ISLGVMCYYVPIPGCECTNI, the amyloid nucleation score entry is “inactive”.
Turning to RVAFSMESTPWSMFTSRTAE, the amyloid nucleation score result was “inactive”.
Consider RSRYSSLPLPVV, for which the amyloid nucleation score entry was “inactive”.
Consider VVTVARERYIVF, for which the amyloid nucleation score entry was “inactive”.
For SLGSMAAVLSPSTAERPANL, the amyloid nucleation score entry was “inactive”.
With GKSTVGMI the entry was “inactive”; with NYYINKSMVRSRWFCCLPLW, 2.34 ± 0.067; with QYRDSYANSSQNPFHCFFNL, “inactive”.
The substance SFRYAYWLSNNCH gave an amyloid nucleation score of 0.378 ± 0.4.
With LYELGQKFLVGHWQRGLKP the entry was “inactive”.
Take MLCDVSKVDLSRLLGAGVYD: the amyloid nucleation score entry is “inactive”.
The result for VELTC reads “inactive”; that for ITVIGQLIALKQFSTLTRSI, “inactive”; that for WQLEKIDDDYLRVTVDEPSE, “inactive”.
The result for RVFGGEIRLSRTCVVM reads 1.27 ± 0.17.
With SANSQYDI the entry was “inactive”; with FGEMRFCFCAG, “inactive”.
Consider IVCCQYQNYLNGSPLNIVLI, for which the amyloid nucleation score result was “inactive”.
Regarding LTVRSHHQAGDMCRRRAISP, the amyloid nucleation score entry was “inactive”.
The result for YCVLLRCNFFRSL reads “inactive”; that for IATDRSSKVLSFHT, “inactive”; that for HSLHMKVCCWGSCEIFSMVR, “inactive”.
With RTDFHPLYLILWNQRK the figure was 1.9 ± 0.098; with SFFPIPIWCD, “inactive”; with DSKMLCCCCWPVRN, 1.42 ± 0.12.
Consider CMCRLEGRTSDLCQESGSCC, for which the amyloid nucleation score was -1.13 ± 1.5.
In the case of KVYRKKPIGYVECLLSPLKA, the amyloid nucleation score result is “inactive”.
With SLYVHRSIANGF the entry was “inactive”.
The result for CLGAGLRSGSAARLYEFGQV reads “inactive”; that for GVVSCHSFSRRRKALRGYSS, “inactive”; that for TFLYFNVLRIHFVASS, “inactive”.
With LDPEP, the amyloid nucleation score entry was “inactive”.
Consider GRIQPCISRAAGPDAGVMGL, for which the amyloid nucleation score entry was “inactive”.
Turning to IWRLLGSWVSVTMDIYHWSS, the amyloid nucleation score result was “inactive”.
Regarding MWDIGGARAKDCEGLSVNCI, the amyloid nucleation score entry is “inactive”.
For the substance FASVFVMN, the amyloid nucleation score result was “inactive”.
RVTIVPTKHHLML: the amyloid nucleation score result is “inactive”.
With YLIGYDT the figure was 0.366 ± 0.65; with ESTYVDGRNTVNDYCPNSTI, “inactive”.
Turning to FYSWDIHGCIVHSIYV, the amyloid nucleation score entry is “inactive”.
The result for TMGGNVIV reads “inactive”; that for SEHDDGMVSPKTHTVGSYTC, “inactive”; that for HGSLMATGICWLGIFVSEVA, “inactive”.
In the case of PTHILPYLVD, the amyloid nucleation score entry is “inactive”.
The result for IPLLNVFSTRRSTCLEGSFT reads “inactive”; that for NIICTWCGGFMRLNLNV, 1.9 ± 0.073.

The record behind these values is the supplement of paper PMC12042874.
